# B1: Dexamethasone-induced Ras-related protein 1 (Mus musculus), O35626 (parent)
# chain: MKLAAMIKKMCPSDSELSIPAKNCYRMVILGSSKVGKTAIVSRFLTGRFEDAYTPTIEDFHRKFYSIRGEVYQLDILDTSGNHPFPAMRRLSILTGDVFILVFSLDNRDSFEEVQRLKQQILDTKSCLKNKTKENVDVPLVICGNKGDRDFYREVEQREIEQLVGDDPQRCAYFEISAKKNSSLDQMFRALFAMAKLPSEMSPDLHRKVSVQYCDVLHKKALRNKKLLRAGSGGGGDHGDAFGILAPFARRPSVHSDLMYIREKTSVGSQAKDKERCVIS
# partner: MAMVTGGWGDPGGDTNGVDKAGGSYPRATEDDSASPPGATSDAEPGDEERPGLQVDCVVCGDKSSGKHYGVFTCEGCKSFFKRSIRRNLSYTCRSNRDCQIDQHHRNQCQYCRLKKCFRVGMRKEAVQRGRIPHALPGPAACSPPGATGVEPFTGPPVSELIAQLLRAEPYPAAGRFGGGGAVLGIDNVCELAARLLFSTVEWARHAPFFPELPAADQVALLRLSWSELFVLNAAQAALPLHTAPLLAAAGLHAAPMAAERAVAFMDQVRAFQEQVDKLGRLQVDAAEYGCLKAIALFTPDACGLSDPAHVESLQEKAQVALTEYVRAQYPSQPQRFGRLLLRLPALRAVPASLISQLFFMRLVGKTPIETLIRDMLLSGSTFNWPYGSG
# Variants of: B1
# Settings: with nr2f6_mouse Nr2f6, P43136
row,Variant,effect of a mutation on the interaction
1,G81A,decreasing interaction
2,K34N,decreasing interaction
